In patent EP0946727B1 (GENENTECH, INC., dated 2007):

What was measured:
rhesus CD11a [1] = target: T1, rhesus CD11a (rhesus, UniProt H9Z8N3 26-1169); assay: cell binding, rhesus CD11a
T1 construct: whole, on cells; also called rhCD11a
T1 sequence: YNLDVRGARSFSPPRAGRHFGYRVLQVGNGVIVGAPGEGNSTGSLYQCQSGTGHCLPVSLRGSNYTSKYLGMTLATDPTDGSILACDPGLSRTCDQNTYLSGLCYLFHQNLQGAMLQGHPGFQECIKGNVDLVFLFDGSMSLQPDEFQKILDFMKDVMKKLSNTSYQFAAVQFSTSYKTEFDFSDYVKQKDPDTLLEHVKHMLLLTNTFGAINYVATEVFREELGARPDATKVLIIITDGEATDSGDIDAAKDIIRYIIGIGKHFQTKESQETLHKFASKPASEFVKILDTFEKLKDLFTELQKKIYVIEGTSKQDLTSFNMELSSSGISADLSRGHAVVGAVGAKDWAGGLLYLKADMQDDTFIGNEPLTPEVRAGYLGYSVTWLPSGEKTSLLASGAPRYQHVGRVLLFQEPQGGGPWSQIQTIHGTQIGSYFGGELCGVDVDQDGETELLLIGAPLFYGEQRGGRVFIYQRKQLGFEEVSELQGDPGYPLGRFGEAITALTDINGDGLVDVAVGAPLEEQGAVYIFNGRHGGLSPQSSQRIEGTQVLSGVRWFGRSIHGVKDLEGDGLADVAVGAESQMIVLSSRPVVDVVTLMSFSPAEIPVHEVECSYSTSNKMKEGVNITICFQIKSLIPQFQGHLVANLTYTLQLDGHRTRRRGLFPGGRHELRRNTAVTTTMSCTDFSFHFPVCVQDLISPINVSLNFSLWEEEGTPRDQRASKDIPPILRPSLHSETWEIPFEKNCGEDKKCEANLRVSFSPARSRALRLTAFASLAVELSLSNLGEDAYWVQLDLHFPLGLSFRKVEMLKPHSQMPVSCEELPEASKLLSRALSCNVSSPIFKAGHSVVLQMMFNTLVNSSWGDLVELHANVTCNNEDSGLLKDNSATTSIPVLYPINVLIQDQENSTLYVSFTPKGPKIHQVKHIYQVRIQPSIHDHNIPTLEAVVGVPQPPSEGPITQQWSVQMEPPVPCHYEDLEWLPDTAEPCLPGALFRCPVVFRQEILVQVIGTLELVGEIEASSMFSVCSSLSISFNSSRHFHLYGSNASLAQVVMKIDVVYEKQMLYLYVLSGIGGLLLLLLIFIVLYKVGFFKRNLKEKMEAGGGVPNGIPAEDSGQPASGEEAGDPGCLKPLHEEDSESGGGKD

rhesus CD11a [2] = target: T1, rhesus CD11a; assay: cell-based or functional assay
rhesus CD11a [3] = target: T1, rhesus CD11a; assay: saturation binding, Kd(app)
rhesus CD11a [4] = target: T1, rhesus CD11a; assay: blocking of rhesus lymphocyte adhesion to human keratinocytes
rhesus CD11a [5] = target: T1, rhesus CD11a; assay: as above; remark: listed apart in the source
[6] = target: T2, rhesus-human chimeric CD11a (human CD11a with a rhesus I-domain) (human, UniProt P20701 26-1170); assay: blocking of adhesion of Rh/HuCD11a-293 cells to human keratinocytes
T2 construct: whole, on cells; also called Rh/HuCD11a
T2 sequence (looked up): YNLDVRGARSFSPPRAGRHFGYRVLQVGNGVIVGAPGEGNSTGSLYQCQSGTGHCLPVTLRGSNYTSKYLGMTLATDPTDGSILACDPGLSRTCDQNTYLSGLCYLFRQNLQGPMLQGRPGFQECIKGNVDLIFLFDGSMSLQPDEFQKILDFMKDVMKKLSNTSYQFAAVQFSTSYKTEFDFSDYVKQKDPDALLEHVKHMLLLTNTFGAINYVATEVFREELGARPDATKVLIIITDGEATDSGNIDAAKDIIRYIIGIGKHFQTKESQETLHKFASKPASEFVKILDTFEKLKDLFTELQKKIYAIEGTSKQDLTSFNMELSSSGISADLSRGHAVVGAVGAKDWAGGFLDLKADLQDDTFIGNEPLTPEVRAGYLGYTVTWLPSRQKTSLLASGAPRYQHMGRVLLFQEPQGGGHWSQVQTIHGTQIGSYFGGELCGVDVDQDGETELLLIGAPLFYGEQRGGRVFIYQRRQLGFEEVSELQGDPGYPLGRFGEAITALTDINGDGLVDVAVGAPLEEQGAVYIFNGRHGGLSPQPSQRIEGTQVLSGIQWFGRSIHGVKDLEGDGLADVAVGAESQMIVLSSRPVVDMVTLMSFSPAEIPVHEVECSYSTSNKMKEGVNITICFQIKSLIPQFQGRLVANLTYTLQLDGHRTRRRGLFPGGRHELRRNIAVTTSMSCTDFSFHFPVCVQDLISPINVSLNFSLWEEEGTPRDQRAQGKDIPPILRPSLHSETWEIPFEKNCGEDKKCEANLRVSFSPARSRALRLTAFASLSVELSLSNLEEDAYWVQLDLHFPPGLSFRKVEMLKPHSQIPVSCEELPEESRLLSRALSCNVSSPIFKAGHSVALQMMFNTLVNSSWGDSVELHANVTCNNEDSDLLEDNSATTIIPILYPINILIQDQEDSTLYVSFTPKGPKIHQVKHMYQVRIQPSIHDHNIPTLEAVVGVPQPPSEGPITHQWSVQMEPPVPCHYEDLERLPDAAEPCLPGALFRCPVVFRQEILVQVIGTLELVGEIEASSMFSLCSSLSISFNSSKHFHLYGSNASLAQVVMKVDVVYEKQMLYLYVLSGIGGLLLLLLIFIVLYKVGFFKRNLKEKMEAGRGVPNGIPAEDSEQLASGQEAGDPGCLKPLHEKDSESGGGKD

rhesus CD11a [7] = target: T1, rhesus CD11a; assay: blocking of rhesus lymphocyte adhesion to recombinant human ICAM-1 on plates
rhesus CD11a [8] = target: T1, rhesus CD11a; assay: as above; remark: listed apart in the source
[9] = target: T2, rhesus-human chimeric CD11a (human …); assay: blocking of adhesion of Rh/HuCD11a-transfected 293 cells to human keratinocytes

fold improvement over the EC50 of HuIgG1 for rhesus CD11a (rhesus CD11a [1]): 240 to 415 fold | fold weaker than the EC50 of HuIgG1 for human CD11a (rhesus CD11a [1]): 3 to 5 fold | IC50, rhesus mixed lymphocyte response (MLR) (rhesus CD11a [2]): 23.4 nM | fold down of Kd from the Kd of HuIgG1 for human CD11a (rhesus CD11a [3]): ~26 fold | fold less efficacious than MHM23 (rhesus CD11a [4]): 74 fold | IC50 (rhesus CD11a [5]): 119 nM | fold down from MHM23 [6]: 4 fold | fold less efficacious than MHM23 (rhesus CD11a [7]): 4 fold | IC50 (rhesus CD11a [8]): 5.3 nM | IC50 [9]: 4.9 nM
B1: rhesus-binding MHM24 IgG1 (rhesusized antibody mutant) (antibody, V domains shown)
VH: EVQLVESGGGLVQPGGSLRLSCAASGYSFTGHWMNWVRQAPGKGLEWVGMIAPASSSTRYNQKFKDRFTISVDKSKNTLYLQMNSLRAEDTAVYYCARGIYFYGTTYFDYWGQGTLVTVSS
VL: DIQMTQSPSSLSASVGDRVTITCRASKTISKYLAWYQQKPGKAPKLLIYSGSTLQSGVPSRFSGSGSGTDFTLTISSLQPEDFATYYCQQHNEYPLTFGQGTKVEIKR
